For assay [1], the target named is T1, Human CD3 epsilon chain on CD3-positive T cells (human, UniProt P07766 23-207).
T1 construct: whole, on cells; also called CD3 antigen
As to the kind of experiment: FACS on T cells.

Assay [2] deals with T2, Human EPCAM (Epithelial Cell Adhesion Molecule) on EPCAM-positive Lovo cells (human, UniProt P16422 24-314).
T2 construct: whole, on cells; Endogenous EPCAM on the Lovo colon cancer cell line; also called EPCAM antigen; CD326
T2 sequence (looked up): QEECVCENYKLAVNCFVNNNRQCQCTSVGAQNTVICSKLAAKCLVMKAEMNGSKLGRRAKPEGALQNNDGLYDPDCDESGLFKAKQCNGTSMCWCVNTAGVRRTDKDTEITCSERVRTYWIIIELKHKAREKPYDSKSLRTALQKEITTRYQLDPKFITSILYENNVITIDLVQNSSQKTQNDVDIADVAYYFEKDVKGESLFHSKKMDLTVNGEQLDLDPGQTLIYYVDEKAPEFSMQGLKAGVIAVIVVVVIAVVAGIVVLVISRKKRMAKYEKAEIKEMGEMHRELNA
As to the kind of experiment: FACS on EPCAM-positive cells.

Assay [3] addresses T2, Human EPCAM (Epithelial Cell Adhesion …). As to the kind of experiment: cell-based or functional assay.

Data on two molecules can be found in US20250388695A1 (PROMAB BIOTECHNOLOGIES, published 2025).

T1 sequence (P07766 23-207): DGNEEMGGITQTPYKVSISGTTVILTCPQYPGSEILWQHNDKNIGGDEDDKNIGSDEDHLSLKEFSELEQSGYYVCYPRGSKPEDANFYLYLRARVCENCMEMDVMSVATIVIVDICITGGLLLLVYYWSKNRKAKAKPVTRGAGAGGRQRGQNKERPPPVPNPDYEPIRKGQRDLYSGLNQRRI

B1: Humanized EPCAM-CD3 bivalent CrossFAB knob-in-hole bispecific antibody PBM005 (FIG. 1A structure) (bispecific antibody)
light: EIVLTQSPATLSLSPGERATLSCSASSSISYMHWYQQKPGQAPRLLIYDTSKLATGIPARFSGSGSGTDFTLTISSLEPEDFAVYYCHQRSSYPYTFGGGTKLEIKRTVAAPSVFIFPPSDEQLKSGTASVVCLLNNFYPREAKVQWKVDNALQSGNSQESVTEQDSKDSTYSLSSTLTLSKADYEKHKVYACEVTHQGLSSPVTKSFNRGEC
chain: QAVVTQEPSLTVSPGGTVTLTCGSSTGAVTTSNYANWVQEKPGQAFRGLIGGTNKRAPGTPARFSGSLLGGKAALTLSGAQPEDEAEYYCALWYSNLWVFGGGTKLTVLSSASTKGPSVFPLAPSSKSTSGGTAALGCLVKDYFPEPVTVSWNSGALTSGVHTFPAVLQSSGLYSLSSVVTVPSSSLGTQTYICNVNHKPSNTKVDKKVEPKSC
heavy 1: not shown
heavy 2: QVQLVQSGSELKKPGASVKVSCKASGYTFTNYGMNWVRQAPGQGLEWMGWINTYTGEPTYADDFKGRFVFSLDTSVSTAYLQISSLKAEDTAVYYCARWLRDFDYWGAGTTVTVSSTKGPSVFPLAPSSKSTSGGTAALGCLVKDYFPEPVTVSWNSGALTSGVHTFPAVLQSSGLYSLSSVVTVPSSSLGTQTYICNVNHKPSNTKVDKKVEPKSCDKTHTCPPCPAPEAAGGPSVFLFPPKPKDTLMISRTPEVTCVVVDVSHEDPEVKFNWYVDGVEVHNAKTKPREEQYNSTYRVVSVLTVLHQDWLNGKEYKCKVSNKALGAPIEKTISKAKGQPREPQVCTLPPSRDELTKNQVSLSCAVKGFYPSDIAVEWESNGQPENNYKTTPPVLDSDGSFFLVSKLTVDKSRWQQGNVFSCSVMHEALHNHYTQKSLSLSPGK
notes: Four constructs co-transfected in 293S cells at 2:1:1:1; Supernatant or protein A purified antibody was used; also called EPCAM-CROSS-FAB-CD3 Knob in hole (KIH) CrossFAB format antibody; EpCAM-CD3 CrossMab knob-in-hole
For the molecule B1, the binding result in assay [1] and in assay [2] was “binds” throughout.

B2: Humanized EPCAM ScFv-linker-CD3 ScFv-His tag (BITE) antibody PBM0065 (FIG. 1B structure) (bispecific antibody)
scFv: QVQLVQSGSELKKPGASVKVSCKASGYTFTNYGMNWVRQAPGQGLEWMGWINTYTGEPTYADDFKGRFVFSLDTSVSTAYLQISSLKAEDTAVYYCARWLRDFDYWGAGTTVTVSSGGGGSGGGGSGGGGSEIVLTQSPATLSLSPGERATLSCSASSSISYMHWYQQKPGQAPRLLIYDTSKLATGIPARFSGSGSGTDFTLTISSLEPEDFAVYYCHQRSSYPYTFGGGTKLEIKGGGGSGGGGSGGGGSEVQLLESGGGLVQPGGSLRLSCAASGFTFSTYAMNWVRQAPGKGLEWVSRIRSKYNNYATYYADSVKGRFTISRDDSKNTLYLQMNSLRAEDTAVYYCVRHGNFGNSYVSWFAYWGQGTLVTVSSGGGGSGGGGSGGGGSQAVVTQEPSLTVSPGGTVTLTCGSSTGAVTTSNYANWVQEKPGQAFRGLIGGTNKRAPGTPARFSGSLLGGKAALTLSGAQPEDEAEYYCALWYSNLWVFGGGTKLTVLHHHHHH
Regarding B2, the “EC50 based on IFN-gamma secretion” value in assay [3] was found to be 5.28 ng/mL.
